Experimental data from publication PMC4837482, “The complex binding mode of the peptide hormone H2 relaxin to its receptor RXFP1” (Nature Communications, 2016).
Each block holds one molecule with its values, some of them ahead of it.

Legend:
LRR domain of RXFP1 = test: Affinity for the LRR domain predicted from the titration data; design: species or system human; details: predicted from the RXFP1(1–72) titration data
[1] = molecular target: RXFP1 A55L, full length (human)
[2] = molecular target: RXFP1 A55S, full length (human)
[3] = molecular target: T1, RXFP1 A68^Δ, full length (human) (UniProt Q9HBX9)
T1 sequence: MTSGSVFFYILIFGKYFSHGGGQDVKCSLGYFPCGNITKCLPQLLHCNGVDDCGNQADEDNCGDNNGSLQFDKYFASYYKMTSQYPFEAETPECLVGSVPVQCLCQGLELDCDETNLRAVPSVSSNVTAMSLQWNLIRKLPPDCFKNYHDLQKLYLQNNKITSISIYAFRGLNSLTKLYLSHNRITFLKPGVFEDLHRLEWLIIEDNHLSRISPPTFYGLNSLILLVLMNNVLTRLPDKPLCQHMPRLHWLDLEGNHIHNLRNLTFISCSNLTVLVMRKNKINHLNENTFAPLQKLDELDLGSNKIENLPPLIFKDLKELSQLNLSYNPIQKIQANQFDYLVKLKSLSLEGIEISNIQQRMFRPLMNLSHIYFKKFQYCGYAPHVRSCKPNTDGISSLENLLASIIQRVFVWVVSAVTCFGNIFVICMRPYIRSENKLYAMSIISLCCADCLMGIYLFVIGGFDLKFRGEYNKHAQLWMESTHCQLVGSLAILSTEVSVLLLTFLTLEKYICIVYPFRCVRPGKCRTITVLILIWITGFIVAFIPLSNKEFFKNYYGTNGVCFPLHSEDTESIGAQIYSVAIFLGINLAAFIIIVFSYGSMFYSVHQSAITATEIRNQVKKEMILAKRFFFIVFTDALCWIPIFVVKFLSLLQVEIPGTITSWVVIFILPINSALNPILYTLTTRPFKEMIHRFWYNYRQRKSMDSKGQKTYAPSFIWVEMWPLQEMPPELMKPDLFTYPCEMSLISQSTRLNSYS

[4] = molecular target: RXFP1 D42A, full length (human)
[5] = molecular target: T2, RXFP1 D51A, full length (human)
T2 sequence (Q9HBX9 1-757 with D51A, looked up): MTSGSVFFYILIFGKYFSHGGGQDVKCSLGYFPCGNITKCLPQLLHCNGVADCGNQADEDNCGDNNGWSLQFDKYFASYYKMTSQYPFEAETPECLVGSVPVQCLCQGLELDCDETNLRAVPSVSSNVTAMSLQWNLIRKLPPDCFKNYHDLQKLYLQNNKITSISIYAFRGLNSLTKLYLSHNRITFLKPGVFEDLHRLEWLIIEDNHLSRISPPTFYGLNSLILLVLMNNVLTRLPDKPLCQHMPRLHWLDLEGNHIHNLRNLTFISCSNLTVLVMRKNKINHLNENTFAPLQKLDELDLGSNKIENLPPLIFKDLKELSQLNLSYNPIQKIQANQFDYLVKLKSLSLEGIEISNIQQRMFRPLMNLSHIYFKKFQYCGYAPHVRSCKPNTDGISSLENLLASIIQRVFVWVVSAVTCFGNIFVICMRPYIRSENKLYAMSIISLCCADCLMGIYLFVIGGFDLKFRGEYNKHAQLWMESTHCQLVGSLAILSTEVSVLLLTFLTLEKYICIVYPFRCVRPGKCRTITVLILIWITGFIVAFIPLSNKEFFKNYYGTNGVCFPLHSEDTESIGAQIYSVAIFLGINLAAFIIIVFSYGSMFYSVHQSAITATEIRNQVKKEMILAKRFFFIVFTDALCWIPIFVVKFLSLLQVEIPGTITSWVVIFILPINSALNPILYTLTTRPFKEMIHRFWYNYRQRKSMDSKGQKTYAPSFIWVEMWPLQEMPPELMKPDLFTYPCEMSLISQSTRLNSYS

[6] = molecular target: RXFP1 E67A, full length (human)
[7] = molecular target: RXFP1 E67A^ins, full length (human)
[8] = molecular target: RXFP1 F50A, full length (human)
[9] = molecular target: RXFP1 F50A^ins, full length (human)
[10] = molecular target: RXFP1 F54A, full length (human)
[11] = molecular target: RXFP1 F54A/Y58A, full length (human)
[12] = molecular target: RXFP1 F66A, full length (human)
[13] = molecular target: RXFP1 G41A, full length (human)
[14] = molecular target: RXFP1 G45A, full length (human)
[15] = molecular target: RXFP1 K52A, full length (human)
[16] = molecular target: RXFP1 M60A, full length (human)
[17] = molecular target: RXFP1 N43A, full length (human)
[18] = molecular target: RXFP1 N43A/N44A, full length (human)
[19] = molecular target: RXFP1 N44A, full length (human)
[20] = molecular target: RXFP1 Q49A/F50A, full length (human)
[21] = molecular target: RXFP1 S47A/L48A, full length (human)
[22] = molecular target: RXFP1 T61A, full length (human)
[23] = molecular target: RXFP1 W46A, full length (human)
[24] = molecular target: RXFP1 Y57A, full length (human)
[25] = molecular target: RXFP1 Y58A, full length (human)
[26] = molecular target: relaxin family peptide receptor-1 (RXFP1), wild type, full length (human) (UniProt Q9HBX9)
RXFP1_((1–72)) (human) = molecular target: T3, RXFP1_((1–72)) (human); test: NMR titration; 2D 1H-15N HSQC; 50 μM 15N-labelled RXFP1(1–72) titrated with 25-500 μM H2 relaxin; 50 mM imidazole, 10 mM CaCl2, pH 6.8, 25 °C; fit of the shifts of Asp51, Ala55 and Thr61
T3 sequence (Q9HBX9 1-72, looked up): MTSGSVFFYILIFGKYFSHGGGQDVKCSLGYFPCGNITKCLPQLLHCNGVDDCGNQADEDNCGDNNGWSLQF

Molecule: H2 relaxin: two-chain 6-kDa peptide hormone structurally related to insulin; recombinant human gene-2 H2 relaxin provided by Corthera
Kd (LRR domain of RXFP1): ~1 µM

H2 relaxin-induced cAMP response (pCRE β-galactosidase reporter, HEK293T), pEC50 [1]: 10.8 pEC50
H2 relaxin-induced cAMP response (pCRE β-galactosidase reporter, HEK293T), pEC50 [2]: 11.4 pEC50
H2 relaxin-induced cAMP response (pCRE β-galactosidase reporter, HEK293T), pEC50 [3]: 11.2 pEC50
H2 relaxin-induced cAMP response (pCRE β-galactosidase reporter, HEK293T), pEC50 [4]: < 6 pEC50
H2 relaxin-induced cAMP response (pCRE β-galactosidase reporter, HEK293T), pEC50 [5]: 11 pEC50
H2 relaxin-induced cAMP response (pCRE β-galactosidase reporter, HEK293T), pEC50 [6]: 11.1 pEC50
H2 relaxin-induced cAMP response (pCRE β-galactosidase reporter, HEK293T), pEC50 [7]: 11.3 pEC50
H2 relaxin-induced cAMP response (pCRE β-galactosidase reporter, HEK293T), pEC50 [8]: 9.45 pEC50
H2 relaxin-induced cAMP response (pCRE β-galactosidase reporter, HEK293T), pEC50 [9]: 9.41 pEC50
H2 relaxin-induced cAMP response (pCRE β-galactosidase reporter, HEK293T), pEC50 [10]: 10.2 pEC50
H2 relaxin-induced cAMP response (pCRE β-galactosidase reporter, HEK293T), pEC50 [11]: 9.87 pEC50
H2 relaxin-induced cAMP response (pCRE β-galactosidase reporter, HEK293T), pEC50 [12]: 11.2 pEC50
H2 relaxin-induced cAMP response (pCRE β-galactosidase reporter, HEK293T), pEC50 [13]: 11.1 pEC50
H2 relaxin-induced cAMP response (pCRE β-galactosidase reporter, HEK293T), pEC50 [14]: 7.48 pEC50
H2 relaxin-induced cAMP response (pCRE β-galactosidase reporter, HEK293T), pEC50 [15]: 11.1 pEC50
H2 relaxin-induced cAMP response (pCRE β-galactosidase reporter, HEK293T), pEC50 [16]: 11.2 pEC50
H2 relaxin-induced cAMP response (pCRE β-galactosidase reporter, HEK293T), pEC50 [17]: 9.06 pEC50
H2 relaxin-induced cAMP response (pCRE β-galactosidase reporter, HEK293T), pEC50 [18]: 8.29 pEC50
H2 relaxin-induced cAMP response (pCRE β-galactosidase reporter, HEK293T), pEC50 [19]: 11 pEC50
H2 relaxin-induced cAMP response (pCRE β-galactosidase reporter, HEK293T), pEC50 [20]: 9.17 pEC50
H2 relaxin-induced cAMP response (pCRE β-galactosidase reporter, HEK293T), pEC50 [21]: 11.1 pEC50
H2 relaxin-induced cAMP response (pCRE β-galactosidase reporter, HEK293T), pEC50 [22]: 11.2 pEC50
H2 relaxin-induced cAMP response (pCRE β-galactosidase reporter, HEK293T), pEC50 [23]: 7.02 pEC50
H2 relaxin-induced cAMP response (pCRE β-galactosidase reporter, HEK293T), pEC50 [24]: 10.9 pEC50
H2 relaxin-induced cAMP response (pCRE β-galactosidase reporter, HEK293T), pEC50 [25]: 10.9 pEC50
H2 relaxin-induced cAMP response (pCRE β-galactosidase reporter, HEK293T), pEC50 [26]: 11 pEC50
Kd (RXFP1_((1–72)) (human)): 200 µM
B1: H2 relaxin (ligand, human)
chain 1: QLYSALANKCCHVGCTKRSLARFC
chain 2: DSWMEEVIKLCGRELVRAQIAICGMSTWS
